Laboratory results from patent US6942980.

T1: bacterially expressed glutathione-S-transferase (GST)-RAR-γ fusion protein (human) (UniProt P13631)
T1 sequence (looked up): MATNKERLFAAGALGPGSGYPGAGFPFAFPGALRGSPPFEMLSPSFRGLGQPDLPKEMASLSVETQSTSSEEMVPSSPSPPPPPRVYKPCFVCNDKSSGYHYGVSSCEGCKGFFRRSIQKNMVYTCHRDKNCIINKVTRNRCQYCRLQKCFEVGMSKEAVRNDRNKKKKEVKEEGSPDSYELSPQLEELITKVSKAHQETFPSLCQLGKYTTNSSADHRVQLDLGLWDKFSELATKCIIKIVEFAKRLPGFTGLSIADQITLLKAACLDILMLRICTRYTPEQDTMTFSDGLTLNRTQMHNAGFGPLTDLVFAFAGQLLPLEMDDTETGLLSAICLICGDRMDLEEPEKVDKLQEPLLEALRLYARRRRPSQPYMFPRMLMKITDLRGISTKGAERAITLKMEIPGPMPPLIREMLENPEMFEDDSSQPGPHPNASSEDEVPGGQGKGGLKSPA


Tests used:
[1] = molecular target: Gal-4 AD-RAR-γ fusion protein (Gal-4 activation domain joined to RAR-γ, from pACT-RAR-γ) (yeast; human) (UniProt P13631); assay: cell-based or functional assay
[2] = molecular target: T1, bacterially expressed glutathione-S-transferase (GST)-RAR-γ fusion protein (human); assay: GST pull-down: 35S-labeled N-CoR-C' on GST-RAR-γ beads, incubation 20 minutes at 30° C.; phosphoimager quantitation
[3] = molecular target: T1, bacterially expressed glutathione-S-transferase (GST)-RAR-γ fusion protein (human); assay: GST pull-down: 35S-labeled N-CoR-C' on GST-RAR-γ beads, incubation 20 minutes at 20° C.; phosphoimager quantitation
[4] = molecular target: T1, bacterially expressed glutathione-S-transferase (GST)-RAR-γ fusion protein (human); assay: GST pull-down: 35S-labeled N-CoR-C' on GST-RAR-γ beads, incubation 20 minutes at 37° C.; phosphoimager quantitation

Row | Units of β-galactosidase activity, yeast two-hybrid in Y190; 1 µM AGN 193109, Triplicate 1 [1] [units] | Units of β-galactosidase activity, yeast two-hybrid in Y190; 1 µM AGN 193109, Triplicate 2 [1] [units] | Units of β-galactosidase activity, yeast two-hybrid in Y190; 1 µM AGN 193109, Triplicate 3 [1] [units] | Units of β-galactosidase activity, yeast two-hybrid in Y190; 1 µM TTNPB, Triplicate 1 [1] [units] | Units of β-galactosidase activity, yeast two-hybrid in Y190; 1 µM TTNPB, Triplicate 2 [1] [units] | Units of β-galactosidase activity, yeast two-hybrid in Y190; 1 µM TTNPB, Triplicate 3 [1] [units] | Units of β-galactosidase activity, yeast two-hybrid in Y190; Control (DMSO), Triplicate 1 [1] [units] | Units of β-galactosidase activity, yeast two-hybrid in Y190; Control (DMSO), Triplicate 2 [1] [units] | Units of β-galactosidase activity, yeast two-hybrid in Y190; Control (DMSO), Triplicate 3 [1] [units] | β-Galactosidase Activity (units), yeast two-hybrid in Y190; 1 µM AGN 194310 [1] [units] | β-Galactosidase Activity (units), yeast two-hybrid in Y190; Control (DMSO) [1] [units] | fold decrease in N-CoR interaction with RAR (1 µM TTNPB against vehicle alone, 30° C.) [2] [fold] | fold increase in N-CoR interaction with RAR (1 µM AGN 193109 against vehicle alone, 30° C.) [2] [fold] | fold decrease in N-CoR binding (1 µM TTNPB against vehicle alone, 20° C.) [3] [fold] | fold increase in N-CoR binding (1 µM AGN 193109 against vehicle alone, 20° C.) [3] [fold] | fold increase in interaction between RAR and N-CoR (1 µM AGN 193109 against vehicle alone, 37° C.) [4] [fold] | Molecule
1 | 5.91 | 4.43 | 4.15 | 2.26 | 1.83 | 1.96 | 2.18 | 2.12 | 1.69 | 5.1 | 0.82 | – | – | – | – | – | GAL-4 DBD-N-CoR fusion protein (GAL-4 DNA binding domain fused to the full length N-CoR polypeptide, from pAS-N-CoR) (from UniProt P04386 1-147; Q60974 1-2453)
2 | – | – | – | – | – | – | – | – | – | – | – | 4.5 | 2.2 | 2.6 | 1.6 | 20.5 | [35S]-radiolabeled in vitro translated N-CoR-C' (C-terminus of N-CoR, amino acids 1629-2453) (protein, UniProt Q60974 1629-2453, looked up, 35S-methionine radiolabel) MQVNLRPDVTRGLSPREQPLGLPYPATRGIIDLTNMPPTILVPHAGGTSTPPMDRITYIPGTQVTFPPRPYNAASLSPGHPTHLAAAASAEREREREREKERERERERERERERERIAAAPADLYLRPGSEQPGRPGSHGYVRSPSPSVRTQETILQQRPSVFQGTNGTSVITPLDPTAQLRIMPLPSGGPSISQGLPASRYNTAADALAALVDAAASAPQMDVSKTKESKHEAARLEENLRSRSAAVSEQQQLEQKNLEVEKRSVQCVCTSSALPSGKAQPHASVVYSEAGKDKGPPPKSRYEEELRTRGKTTITAANFIDVIITRQIASDKDARERGSQSSDSSSSLSSHRYETASDAIEVISPASSPAPPQEKPQAYQPDMVKANQAENESTRQYEGPLHHYRSQQESPSPQQQPPLPPSSQSEGMGQVPRTHRLITLADHICQIITQDFARNQVPSQASTSTFQTSPSALSSTPVRTKTSSRYSPESQSQTVLHPRPGPRVSPENLVDKSRGSRPGKSPERSHIPSEPYEPISPPQGPAVHEKQDSMLLLSQRGVDPAEQRSDSRSPGSISYLPSFFTKLESTSPMVKSKKQEIFRKLNSSGGGDSDMAAAQPGTEIFNLPAVTTSGAVSSRSHSFADPASNLGLEDIIRKALMGSFDDKVEDHGVVMSHPVGIMPGSASTSVVTSSEARRDEGEPSPHAGVCKPKLINKSNSRKSKSPIPGQSYLGTERPSSVSSVHSEGDYHRQTPGWAWEDRPSSTGSTQFPYNPLTIRMLSSTPPTQIACAPSAITQAAPHQQNRIWEREPAPLLSAQYETLSDSDD
